Assay results taken from paper PMC10958042.

B1: ATGL (PNPLA2, patatin-like phospholipase domain-containing protein 2), human, full length / CIDEC (FSP27), human (parent)
chain 1: MFPREKTWNISFAGCGFLGVYYVGVASCLREHAPFLVANATHIYGASAGALTATALVTGVCLGEAGAKFIEVSKEARKRFLGPLHPSFNLVKIIRSFLLKVLPADSHEHASGRLGISLTRVSDGENVIISHFNSKDELIQANVCSGFIPVYCGLIPPSLQGVRYVDGGISDNLPLYELKNTITVSPFSGESDICPQDSSTNIHELRVTNTSIQFNLRNLYRLSKALFPPEPLVLREMCKQGYRDGLRFLQRNGLLNRPNPLLALPPARPHGPEDKDQAVESAQAEDYSQLPGEDHILEHLPARLNEALLEACVEPTDLLTTLSNMLPVRLATAMMVPYTLPLESALSFTIRLLEWLPDVPEDIRWMKEQTGSICQYLVMRAKRKLGRHLPSRLPEQVELRRVQSLPSVPLSCAAYREALPGWMRNNLSLGDALAKWEECQRQLLLGLFCTNVAFPPEALRMRAPADPAPAPADPASPQHQLAGPAPLLSTPAPEARPVIGALGL
chain 2: MEYAMKSLSLLYPKSLSRHVSVRTSVVTQQLLSEPSPKAPRARPCRVSTADRSVRKGIMAYSLEDLLLKVRDTLMLADKPFFLVLEEDGTTVETEEYFQALAGDTVFMVLQKGQKWQPPSEQGTRHPLSLSHKPAKKIDVARVTFDLYKLNPQDFIGCLNVKATFYDTYSLSYDLHCCGAKRIMKEAFRWALFSMQATGHVLLGTSCYLQQLLDATEEGQPPKGKASSLIPTCLKILQ
B2: ATGL (PNPLA2, patatin-like phospholipase domain-containing protein 2), human, full length / perilipin-5, mouse (mPlin5) (parent)
chain 1: B1 chain 1
chain 2: MDQRGEDTTLAPHSRMSGDQTAQDPGSSLGELDQQNVVNRVVALPLVKATCTAVSSAYNSAKDRHPLLGSACRLAEHCVCSVTTCALDHAQPLLEHLQPQLATVNDLACRGLDKLEEKLPFLQQPSDMVVTSAKDTVAKSVTGMVDLAQRGRRWSGELRRSMSQAMDMVLGKSEKLVDRFLPMTEAELAVLAAEAEGPEVGTVEEQRQQQGYFVRLGSLSARLRHLAYEHSLGKLRQSKHRTQEMLAQLQETLELIQHMQRGASPSPTFHPPKTQELWGSWSPCLENGRSHSEVELETLALSRSLTLELQNAVDALAGCVRGLPPSAQAKVAEVQRSVDALQATFADAHCLGDVAPTALAEGRGSVARAHACVDEFLDLVLRAMPLPWLVGPFAPILVEQSEPLINLATCVDEVVGDPDPRWAHMDWPAQKRAWEAESADPGGQEAEPPRGQGKHTMMPELDF

Variants of: B1
Test: LUMIER: Protein A-ATGL variant and firefly luciferase-partner co-expressed in HEK293T, lysates immunoprecipitated on IgG-coated plates, co-precipitated partner measured as luciferase luminescence
Conditions: with CIDEC (FSP27), transient co-transfection, IgG-coated LUMITRAC plates, 2 h at 4 °C, three PBS washes, Bright-Glo luciferase reagent, triplicates per assay, two …, parent: 0.17, not graded, scale: log2 fold change of co-immunoprecipitated luminescence relative to wild-type ATGL within each experiment

| Variant | screen value |
| --- | --- |
| chain 1 E368A | -0.223 |
| chain 1 L102K | -0.128 |
| chain 1 G66A | -0.0355 |
| chain 1 G66L | 0.197 |
| chain 1 K275A | -0.673 |
| chain 1 A434L | -0.034 |
| chain 1 K92L | -0.0227 |
| chain 1 G189E | -0.952 |
| chain 1 A453E | 0.56 |
| chain 1 I70K | -0.434 |
| chain 1 I70A | -0.118 |
| chain 1 L62A | -0.111 |
| chain 1 L62K | -0.0341 |
| chain 1 E125L | -0.231 |
| chain 1 G59L | 0.339 |
| chain 1 F348E | -0.409 |
| chain 1 A104E | -0.0649 |
| chain 1 G16K | 0.534 |
| chain 1 G153K | -0.57 |
| chain 1 G153A | -0.268 |
| chain 1 L159A | -0.648 |
| chain 1 F35A | 0.00149 |
| chain 1 F35E | 0.312 |
| chain 1 E314A | -0.691 |
| chain 1 H109E | -0.00157 |

More lines, now with the values ahead:

| screen value | Variant |
| --- | --- |
| -0.166 | chain 1 V127L |
| -0.713 | chain 1 L261E |
| -0.161 | chain 1 Q140K |
| 0.722 | chain 1 Q140A |
| 0.0352 | chain 1 Q396A |
| -0.169 | chain 1 R95L |
| -0.0915 | chain 1 R95K |
| 0.129 | chain 1 N39E |
| -0.529 | chain 1 N180L |
| -0.0703 | chain 1 S106K |
| 0.105 | chain 1 T41A |
| -0.309 | chain 1 S158E |
| -0.128 | chain 1 S158A |
| -0.204 | chain 1 L178A |
| 0.081 | chain 1 P86K |
| -0.89 | chain 1 P258L |
| 0.302 | chain 1 V328A |
| -0.719 | chain 1 R113L |
| -0.11 | chain 1 R113K |
| -0.411 | chain 1 Y415A |
| 0.652 | chain 1 R163K |
| 0.201 | chain 1 R329E |
| -0.241 | chain 1 P103K |
| -0.723 | chain 1 P156K |
| -0.353 | chain 1 R351L |
| -0.0562 | chain 1 S87A |
| -0.478 | chain 1 S87E |

Same assay, conditions: with CIDEC (FSP27), transient co-transfection, IgG-coated LUMITRAC plates, 2 h at 4 °C, three PBS washes, Bright-Glo luciferase reagent, triplicates per assay, two …, parent: 0.24, not graded, scale: log2 fold change of co-immunoprecipitated luminescence relative to wild-type ATGL within each experiment

| Variant | screen value |
| --- | --- |
| chain 1 E368A | -0.54 |
| chain 1 L102K | -0.319 |
| chain 1 G66A | -0.0837 |
| chain 1 G66L | -0.656 |
| chain 1 K275A | -0.64 |
| chain 1 A434L | 0.729 |
| chain 1 K92L | 0.785 |
| chain 1 G189E | -0.896 |
| chain 1 A453E | 0.847 |
| chain 1 I70K | -0.623 |
| chain 1 I70A | -0.628 |
| chain 1 L62A | -0.17 |
| chain 1 L62K | 0.845 |
| chain 1 E125L | -0.238 |
| chain 1 G59L | -0.00561 |
| chain 1 F348E | -0.389 |
| chain 1 A104E | -0.317 |
| chain 1 G16K | 0.954 |
| chain 1 G153K | -0.174 |
| chain 1 G153A | 0.00164 |
| chain 1 L159A | 0.00161 |
| chain 1 F35A | -0.0902 |
| chain 1 F35E | 0.00116 |
| chain 1 E314A | -0.29 |
| chain 1 H109E | -0.00996 |

The remaining lines, values ahead:

| screen value | Variant |
| --- | --- |
| -0.0792 | chain 1 V127L |
| -0.796 | chain 1 L261E |
| 0.485 | chain 1 Q140K |
| 0.0209 | chain 1 Q140A |
| -0.182 | chain 1 Q396A |
| 0.507 | chain 1 R95L |
| -0.656 | chain 1 R95K |
| -0.0276 | chain 1 N39E |
| -0.574 | chain 1 N180L |
| -0.113 | chain 1 S106K |
| -0.176 | chain 1 T41A |
| -0.238 | chain 1 S158E |
| 0.0569 | chain 1 S158A |
| -0.645 | chain 1 L178A |
| -0.642 | chain 1 P86K |
| -0.788 | chain 1 P258L |
| -0.193 | chain 1 V328A |
| 0.537 | chain 1 R113L |
| 0.829 | chain 1 R113K |
| -0.266 | chain 1 Y415A |
| 0.0551 | chain 1 R163K |
| -0.13 | chain 1 R329E |
| -0.421 | chain 1 P103K |
| -0.374 | chain 1 P156K |
| -0.407 | chain 1 R351L |
| -0.798 | chain 1 S87A |
| -0.728 | chain 1 S87E |

Variants of: B2
Test: as above
Conditions: with perilipin-5, mouse (mPlin5), transient co-transfection, IgG-coated LUMITRAC plates, 2 h at 4 °C, three PBS washes, Bright-Glo luciferase reagent, triplicates per assay, two …, parent: 0.15, not graded, scale: log2 fold change of co-immunoprecipitated luminescence relative to wild-type ATGL within each experiment

| Variant | screen value |
| --- | --- |
| chain 1 E125L | 0.00114 |
| chain 1 A434L | 0.18 |
| chain 1 L159A | -1.17 |

Results, then the variant that gave them:

| screen value | Variant |
| --- | --- |
| -0.404 | chain 1 R95L |
| 0.211 | chain 1 R95K |

Same assay, conditions: with perilipin-5, mouse (mPlin5), transient co-transfection, IgG-coated LUMITRAC plates, 2 h at 4 °C, three PBS washes, Bright-Glo luciferase reagent, triplicates per assay, two …, parent: 0.46, not graded, scale: log2 fold change of co-immunoprecipitated luminescence relative to wild-type ATGL within each experiment

| Variant | screen value |
| --- | --- |
| chain 1 E125L | -0.226 |
| chain 1 A434L | 0.786 |
| chain 1 L159A | -0.435 |

The remaining lines, values ahead:

| screen value | Variant |
| --- | --- |
| -0.391 | chain 1 R95L |
| -0.228 | chain 1 R95K |
